Results on four molecules are retold here after patent US20180207269A1.

Assay [1] has as its target CD166 (activated leukocyte cell adhesion molecule, ALCAM) on human cells (human) (UniProt Q13740). The assay is described as follows: flow cytometry, CD3+ T cells triggered with CD3/CD28 (5ug/ml, 1ug/ml) w/o ILT3Fc, stained with ILT3Fc-FITC. (In flow cytometry, cells or beads pass a laser one at a time.)
For assay [2] the target is unchanged. The assay is described as follows: flow cytometry, Jurkat cells nucleofected with CD166 over-expression plasmid, double staining anti-CD166 APC + ILT3Fc-FITC.
For assay [3] the target is unchanged. The assay is described as follows: flow cytometry, CD4-gated T helper cells of a healthy donor (low or no ILT3L).
For assay [4] the target is unchanged. As to the kind of experiment: flow cytometry, CD3+ T cells, Control Treatment, cultured w/o ILT3Fc, stained with ILT3Fc-FITC.
For assay [5] the target is unchanged. As to the kind of experiment: flow cytometry, ILT3Fc-FITC on control-virus infected H9 cells.
For assay [6] the target is unchanged. The assay is described as follows: flow cytometry, H9 cells with CD166 knocked down by CD166 shRNA adeno-virus (Adeno-siCD166) for 7 days, double staining anti-CD166 PE + ILT3Fc-FITC.
For assay [7] the target is unchanged. As to the kind of experiment: flow cytometry, CD3+ T cells triggered with PWM (0.05ug/ml) w/o ILT3Fc, stained with ILT3Fc-FITC.
The target is the same in assay [8]. As to the kind of experiment: flow cytometry, CD3+ T cells triggered with CD3/CD28 (5ug/ml, 1ug/ml) in the presence of ILT3Fc (50 ug/mL), stained with ILT3Fc-FITC.
For assay [9] the target is unchanged. The assay is described as follows: flow cytometry, CD3+ T cells, Control Treatment, cultured with ILT3Fc (50 ug/mL), stained with ILT3Fc-FITC.
The target is the same in assay [10]. As to the kind of experiment: flow cytometry, Wild-Type H9 cells, double staining anti-CD166-PE + ILT3.Fc-FITC.
For assay [11] the target is unchanged. As to the kind of experiment: flow cytometry, Jurkat cells nucleofected with control vector, double staining anti-CD166 APC + ILT3Fc-FITC.
Assay [12] shares this target. The assay is described as follows: flow cytometry, H9 cells infected with control adeno-virus (Adeno-Control) for 7 days, double staining anti-CD166 PE + ILT3Fc-FITC.
Assay [13] has the same target. The assay is described as follows: cell-based or functional assay.
The target is the same in assay [14]. As to the kind of experiment: flow cytometry, CD3-gated T cells of a healthy donor (low or no ILT3L).
For assay [15] the target is unchanged. The assay is described as follows: flow cytometry, CD3+ T cells triggered with PWM (0.05ug/ml) in the presence of ILT3Fc (50 ug/mL), stained with ILT3Fc-FITC.
The target is the same in assay [16]. The assay is described as follows: flow cytometry, ILT3Fc-FITC on H9 cells with CD166 knocked down by shRNA adeno-virus.
For assay [17] the target is unchanged. As to the kind of experiment: flow cytometry, CD166 KO H9 cells (CD166 gene knocked out: control cells without the target), double staining anti-CD166-PE + ILT3.Fc-FITC.
The target is the same in assay [18]. The assay is described as follows: flow cytometry, Jurkat cells pre-incubated with J4-81, then ILT3Fc-FITC.
Assay [19] shares this target. The assay is described as follows: flow cytometry, Jurkat cells pre-incubated with CD6-Fc, then ILT3Fc-FITC.
For assay [20] the target is unchanged. As to the kind of experiment: flow cytometry, Jurkat cells pre-incubated with CD166-Fc, then ILT3Fc-FITC.

Turning to “ILT3Fc (water-soluble recombinant protein: extracellular domain of human ILT3 affixed to the Fc portion of an immunoglobulin) (from UniProt Q8NHJ6 22-259; P01857 104-330) (Fc fusion)”, the % cells stained with ILT3Fc-FITC in assay [1] was found to be 26.9%; in [4], 1.08%; in [7], 23.2%; in assay [8], 20.4%; in assay [9] it was 0.8%; in assay [15], 15.2%. Moreover, the % cells in lower left quadrant (CD166- / ILT3Fc-FITC-) in assay [2] was 13.4%; in [6], 50%; in assay [10] it was 3.57%; in assay [11] it was 30.6%; in assay [12] it was 6.33%; in assay [17], 96.5%. Further, the % cells in lower right quadrant (CD166- / ILT3Fc-FITC+) amounted to 1.08% in [2]; 5.8% in [6]; 0.03% in assay [10]; 1.08% in [11]; 0.15% in [12]; 2.94% in [17]. The % cells in upper left quadrant (CD166+ / ILT3Fc-FITC-) in assay [2] was determined as 66.3%; in assay [6], 26.7%; in assay [10] it was 22.3%; in assay [11], 58%; in assay [12], 47%; in assay [17], 0.1%. The % cells in upper right quadrant (CD166+ / ILT3Fc-FITC+) was 19.2% in assay [2]; 14.5% in assay [6]; 74.1% in assay [10]; 10.2% in [11]; 46.5% in [12]; 0.43% in assay [17]. The percent ILT3Fc binding worked out at 1% in [3] and 12% in [14]. Moreover, the results for the percent of cells binding ILT3Fc in assay [5] and in assay [16] were 46% and less than 20%, respectively. Moreover, in assay [13], the inhibition of growth of tumor cell lines at 72 hours fell in the range of 50 to 90%.

In turn, anti-CD166 mAb J4-81 (antibody) yielded a percent inhibition of ILT3Fc-FITC binding in assay [18] of 28%.

B1: human CD6-Fc (Fc fusion, UniProt P30203 25-398, looked up, not shown: a dimerising Fc or GST)
chain: DQLNTSSAESELWEPGERLPVRLTNGSSSCSGTVEVRLEASWEPACGALWDSRAAEAVCRALGCGGAEAASQLAPPTPELPPPPAAGNTSVAANATLAGAPALLCSGAEWRLCEVVEHACRSDGRRARVTCAENRALRLVDGGGACAGRVEMLEHGEWGSVCDDTWDLEDAHVVCRQLGCGWAVQALPGLHFTPGRGPIHRDQVNCSGAEAYLWDCPGLPGQHYCGHKEDAGAVCSEHQSWRLTGGADRCEGQVEVHFRGVWNTVCDSEWYPSEAKVLCQSLGCGTAVERPKGLPHSLSGRMYYSCNGEELTLSNCSWRFNNSNLCSQSLAARVLCSASRSLHNLSTPEVPASVQTVTIESSVTVKIENKESRE
For B1, the percent inhibition of ILT3Fc-FITC binding in [19] amounted to 49%.

B2: human CD166Fc (Fc fusion, UniProt Q13740 28-526, looked up, not shown: a dimerising Fc or GST)
chain: WYTVNSAYGDTIIIPCRLDVPQNLMFGKWKYEKPDGSPVFIAFRSSTKKSVQYDDVPEYKDRLNLSENYTLSISNARISDEKRFVCMLVTEDNVFEAPTIVKVFKQPSKPEIVSKALFLETEQLKKLGDCISEDSYPDGNITWYRNGKVLHPLEGAVVIIFKKEMDPVTQLYTMTSTLEYKTTKADIQMPFTCSVTYYGPSGQKTIHSEQAVFDIYYPTEQVTIQVLPPKNAIKEGDNITLKCLGNGNPPPEEFLFYLPGQPEGIRSSNTYTLTDVRRNATGDYKCSLIDKKSMIASTAITVHYLDLSLNPSGEVTRQIGDALPVSCTISASRNATVVWMKDNIRLRSSPSFSSLHYQDAGNYVCETALQEVEGLKKRESLTLIVEGKPQIKMTKKTDPSGLSKTIICHVEGFPKPAIQWTITGSGSVINQTEESPYINGRYYSKIIISPEENVTLTCTAENQLERTVNSLNVSAISIPEHDEADEISDENREKVNDQA
Molecule B2 came in with a percent inhibition of ILT3Fc-FITC binding in assay [20] of 30%.
